Substrate: CCCCCCCCCCCC(=O)CC(=O)O
Experiment: Steady-state kinetic decarboxylase assay (3-ketomyristic acid to 2-tridecanone, GC-MS)
Type: biochemical, Solanum habrochaites f glabratum
Settings: other: ShMKS1 decarboxylase, substrate 5 μM to 75 μM, pH 7.0, 23° C., 10 min
Procedure: To examine the possible decarboxylase activity of ShMKS1 as well as ShMKS2 in vitro, we tested homogenous recombinant ShMKS1 and partially purified recombinant ShMKS2 proteins (without their transit peptides) for their ability to convert 3-ketomyristic acid into its 2-tridecanone decarboxylated product. […] In steady-state kinetic assays, ShMKS1 was determined to have a KM of 18.4±5.6 μM for 3-ketomyristic acid, with an apparent kcat of 227.9±24.1 min^−1.
His-tagged ShMKS1 and ShMKS2 were affinity-purified on Nickel-agarose chromatography using the protocol described in Fridman et al., (2005) Metabolic, genomic, and biochemical analyses of glandular trichomes from the wild tomato species Lycopersicon hirsutum identify a key enzyme in the biosynthesis of methylketones, Plant Cell 17: 1252-1267. After elution from the Nickel-agarose column, the proteins were analyzed by SDS-PAGE and ShMKS2 dialyzed against 50 mM phosphate buffer pH 6.8, 500 mM NaCl, and 1M (NH4)2SO4, and 2 mM DTT and ShMKS1 dialyzed against 12.5 mM phosphate buffer pH 6.8, 50 mM NaCl, and 2 mM DTT. ShMKS1 purity was estimated at 99%, and ShMKS2 purity was estimated at 6%.
A typical decarboxylase assay consisted of a 500 μL reaction solution containing ShMKS1 or ShMKS2 (2.5 μg), 3-ketomyristic acid (0.1 mM), and 1,3-bis(tris(hydroxymethyl)methylamino) propane—Na^+ (20 mM, pH 7.0). […]

B1: Solanum habrochaites f glabratum methylketone synthase 1 (ShMKS1), recombinant His-tagged, SEQ ID NO: 17 (Solanum habrochaites) (protein)
chain: MEKSMSPFVKKHFVLVHTAFHGAWCWYKIVALMRSSGHNVTALDLGASGINPKQALQIPNFSDYLSPLMEFMASLPANEKIILVGHALGGLAISKAMETFPEKISVAVFLSGLMPGPNIDATTVCTKAGSAVLGQLDNCVTYENGPTNPPTTLIAGPKFLATNVYHLSPIEDLALATALVRPLYLYLAEDISKEVVLSSKRYGSVKRVFIVATENDALKKEFLKLMIEKNPPDEVKEIEGSDHVTMMSKPQQLFTTLLSIANKYK
notes: no cleavable transit peptide, 265-residue protein
Km: 18.4 ± 5.6 µM | kcat: 3.798 ± 0.402 s⁻¹
